In PMC7458484:

Target: HBV core protein Cp185 (full-length) (hepatitis B virus (Human); compared to …, UniProt Q67855 1-185)
Assay: time-resolved SAXS (stopped flow), SEC capsid assembly; after mixing ~1 RNA per 6.5 Cp185 monomers; RNA in assembly buffer; RNA added to dimers in disassembly buffer immediately triggered capsid formation; Cp185 in 1.5 M GuHCl, 0.5 M LiCl, 50 mM HEPES pH 7.5, 2 mM DTT mixed 1:1 with assembly buffer 250 mM NaCl, 50 mM HEPES pH 7.5, 2 mM DTT; RNA 0.075 mg/mL final

B1: PS1 RNA oligo (40 nt, RNA40) (structured_RNA)
RNA: GGGUUUGUUUAAAGACUGGGAGGAGUUGGGGGAGGAGCCC
binding result: binds
